Results taken from the supplement of paper PMC7877785.
± gives the uncertainty stated by the source.

Assay: self-splicing fitness, log relative to wild type (ln ratio); higher = more splicing; Tetrahymena group I intron in knt gene, E. coli kanamycin selection, DiMSum; sequences stand for … in CUCUCU…GGAGGGAAAAGUUAUCAGGCAUGCACCUGGUAGCUAGUCUUUAAACCAAUAGAUUGCAUCGGUUUAAAAGGCAAGACCGUCAAAUUGCGGGAAAGGGGUCAACAGCCGUUCAGUACCAAGUCUCAGGGGAAACUUUGAGAUGGCCUUGCAAAGGGUAUGGUAAUAAGCUGACGGACAUGGUCCUAACCACGCAGCCAAGUCCUAAGUCAACAGAUCUUCUGUUGAUAUGGAUGCAGUUCACAGACUAAAUGUCGGUCGGGGAAGAUGUAUUCUUCUCAUAAGAUAUAGUCGGACCUCUCCUUAAUGGGAGCUAGCGGAUGAAGUGAUGCAACACUGGAGCCGCUGGGAACUAAUUUGUAUGCGAAAGUAUAUUGAUUAGUUUUGGAGUACUCGUGGUCG
Outline: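 Fitness was computed with DiMSum as the error-weighted combination of replicate fold changes, kanamycin versus none, each normalised to wild type. The library randomised all eight intron nucleotides of the P1ex region, with the intron placed in the knt kanamycin-resistance gene on pET-22b(+) in E. coli BL21(DE3). Six replicate transformations were grown overnight at 37°C or 30°C on LB agar with or without 25 μg/mL kanamycin, plus 100 μg/mL carbenicillin, 50 μM IPTG and 0.2% rhamnose. Pooled colonies were amplicon-sequenced on an Illumina HiSeq 2500.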

Row | Sequence | self-splicing fitness (ln) (30 °C) | self-splicing fitness (ln) (37 °C)
1 | CCGUAGCAAUAUUACGCGCG | -2.15 ± 0.17 | -0.999 ± 0.18
2 | CACGAGCAAUAUUACGAGUG | -3.34 ± 0.17 | -1.83 ± 0.18
3 | CGCAAGCAAUAUUACGAACC | -2.01 ± 0.19 | -0.722 ± 0.19
4 | GUCCAGCAAUAUUACGUAUU | -0.819 ± 0.078 | -0.174 ± 0.09
5 | GUAAAGCAAUAUUACGACGG | -3.85 ± 0.29 | -2.28 ± 0.23
6 | GCACAGCAAUAUUACGAGAG | -2.96 ± 0.14 | -1.33 ± 0.11
7 | ACCGAGCAAUAUUACGCACG | -3.67 ± 0.31 | -3.29 ± 0.33
8 | CACCAGCAAUAUUACGGCGU | -2.28 ± 0.097 | -0.886 ± 0.11
9 | GUUGAGCAAUAUUACGUUAC | -2.2 ± 0.13 | -2.21 ± 0.24
10 | CUAUAGCAAUAUUACGUAAA | -3.63 ± 0.24 | –
11 | UUAGAGCAAUAUUACGUAGC | -2.12 ± 0.24 | –
12 | GGCAAGCAAUAUUACGUGAC | -1.6 ± 0.12 | -0.479 ± 0.14
13 | AUCGAGCAAUAUUACGAUGC | -2.77 ± 0.47 | -1.77 ± 0.42
14 | CCUAAGCAAUAUUACGGAAG | -2.12 ± 0.11 | -0.751 ± 0.1
15 | AUCUAGCAAUAUUACGGUAC | -2.16 ± 0.11 | -2.44 ± 0.14
16 | ACGCAGCAAUAUUACGGGGU | -4.68 ± 0.22 | -2.34 ± 0.12
17 | UAGGAGCAAUAUUACGGUUA | -1.64 ± 0.12 | 0.0427 ± 0.11
18 | UAUUAGCAAUAUUACGUUCG | -1.13 ± 0.16 | -0.121 ± 0.18
19 | GUUUAGCAAUAUUACGUUAU | -2.88 ± 0.23 | -0.357 ± 0.16

Row | Sequence | self-splicing fitness (ln) (30 °C) | self-splicing fitness (ln) (37 °C)
20 | CACUAGCAAUAUUACGUAUU | -3.28 ± 0.17 | -2.11 ± 0.15
21 | AGUGAGCAAUAUUACGGGGU | -4.06 ± 0.25 | -2.67 ± 0.21
22 | AUUAAGCAAUAUUACGAGAU | -2.99 ± 0.21 | -1.47 ± 0.16
23 | GCGAAGCAAUAUUACGGACA | -0.834 ± 0.13 | -0.85 ± 0.13
24 | GGCUAGCAAUAUUACGGGAC | -3.59 ± 0.3 | -0.762 ± 0.21
25 | CUCUAGCAAUAUUACGUGAU | -3.45 ± 0.15 | -3.92 ± 0.24
26 | AAAUAGCAAUAUUACGUGCU | -0.869 ± 0.11 | -1.22 ± 0.15
27 | GAUAAGCAAUAUUACGGAAU | -3.09 ± 0.14 | -2.28 ± 0.14
28 | AGUGAGCAAUAUUACGGAGG | -3.77 ± 0.28 | -2.67 ± 0.27
29 | AACAAGCAAUAUUACGAGAA | -2.78 ± 0.32 | -2.03 ± 0.21
30 | UCAAAGCAAUAUUACGACUA | -1.14 ± 0.098 | -1.03 ± 0.1
31 | GUACAGCAAUAUUACGGCUC | 0.189 ± 0.083 | 1.05 ± 0.097
32 | UCAAAGCAAUAUUACGGCGG | -0.543 ± 0.063 | -0.0651 ± 0.088
33 | CCGAAGCAAUAUUACGUAUU | -4.74 ± 0.29 | -3.35 ± 0.2
34 | CCAAAGCAAUAUUACGUUCC | -3.37 ± 0.24 | -2.93 ± 0.32
35 | GAAAAGCAAUAUUACGCGGG | -3.37 ± 0.2 | -2.21 ± 0.18
36 | AUCUAGCAAUAUUACGGCGU | -0.0812 ± 0.084 | 0.429 ± 0.1
37 | GAGAAGCAAUAUUACGUUCA | -0.919 ± 0.2 | -0.374 ± 0.22
38 | UACUAGCAAUAUUACGCACA | -0.646 ± 0.079 | 0.021 ± 0.092
